Assay results from the domain aggregation screens of Martell et al. (2025).

Assay: soluble fraction after stress (log2 fold change); higher = more stays soluble; pooled small domains, quantitative proteomics
Details: stress: pH 4
In short: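 Values are on a log2 scale, where higher means more of the domain stayed soluble after pH 4 stress. They are fold changes in the soluble amount of each domain from pooled custom libraries, measured by high-throughput quantitative proteomics. The fold change is taken to reflect aggregation propensity.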

Row | Sequence | soluble fraction (log2)
1 | HMGTTLTKIPGIGENRARLLLRHFGSLRAVREADADALAAVKGMTRPAAEAIVRYFEQQDAEGRRD | 0.336
2 | HMGTTTPPATRKGKVTSSFLNVRSGPSTANAKVAELKQNAVVTIYETSSNGWHRIGVNQWVIGTNIQE | -0.121
3 | HMGTVSSGSSSTDTPFSLGEIVRHKVFGEGVVLSIEGQGDASRIQINFNTAGTKWLVTAYADLEK | -1.28
4 | HMGTVVKRNALVHAWTEFNGGRASTKLLALGPGKVGEWIELENPQSGRKLRGEVQVDGSVRLG | 0.296
5 | HMGTWKKIGTMTATVNDLYVRETPNGYIMGFINKGTVVEVDGKTTGKWTHAKVEGIGVGWIWTGYLDK | 0.161
6 | HMGTYYTEIIAQLKKEIANGTWKLGERLPGELALAKQFNVSRSSIREALKALAYAGIVESKPGRGTFLLHV | -0.207
7 | HMGVAAEDPDEAEKGAHSLKSSAANVGAEVVRGLAGEIESAASSGDVEAVRTILPGLEDAYSQAITDLET | 0.133
8 | HMGVDMGPAKYVGQKALTATEMRPAGKIQIGQTVFDAVSVGPFIGARKAVKVIKYENAQLYVEPE | 0.116
9 | HMGVEVEVPNVKGKLVADAEYELGLAQLTPVRTDSAYNRNLPPGTVLEQLPASGSHVKEGREIYLTINST | 0.155
10 | HMGVGERIKARRKEIGLSAEQVAKELGVSPATVYRYESNDIMNMRIDKLEPIAKALHTTPAYLMGWE | 0.155
11 | HMGVGVKSTEVDYQRTSSGSDIPTDDAAWTKTIPAVKVNTFLWTRTKINYTDGTSAIFYSVGY | 0.419
12 | HMGVGVPVTLLLEKLGEDTLSAQQIMERLGLKSRASFRKVYLVPALEQKLIEMEFPDKPNSSKQRYRR | -0.00401
13 | HMGVISRVITFWQNGFTVDDGPLRAFDDPANMAFMESIGRGEAPAELAPKTRTQRVNINLVQRHEPYSAPK | -0.934
14 | HMGVITVRPPIVVRDFAIALNLKPFQVIGNLMELNKVVSVSSVIEEADARKVAERHGYTLEIRH | -0.133
15 | HMGVMNEYEELRDRYLTGQIWKIGDLVEAKGIEGKIIQRGTNYITFNDSQGKVHKAWLHEIKV | ≥ 0.43
16 | HMGVNNDIIKHRKLEFMIEMLPDTFTRKEANEIGEGLGISLATLTRYLSSDAFERTGHGRYRKKD | 0.139
17 | HMGVPTEQEIGKRILAWRKLRGMTLQQLADKAGVGLTTIHNLETGLWYAKMPTYLYIAEALGVSLDALIYG | 0.0266
18 | HMGVPVTAPMPGKVLKVTVSVGAAVKNGDLVLVLEAMKMENEIFATANGVVKEIRSREGDTVNSGDVMMVI | -1.35
19 | HMGVRPAALGFQKVRIEPQVGTFREASGDVITPRGLIHAEWKRDEENALHLHYTLPDGVAYA | -0.109
20 | HMGVSDDMARGVVRARQFLSDFAAVPLDRMTPAEAVARARQLKSELETDAKHSPWLLDVLSNA | -0.37
21 | HMGVSEIGSPAWMESKLVTLASYEGSLDGLRTLWGGVAQHRARIPVESWDRLFAAKEEGKARLVKLGRT | 0.0299
22 | HMGVSLREVPVAEHGDWIGRPIKELGIPAEVLIVLVRRADGTTVVPKGGTVLQQGDMLVVNEWEE | -1.25
23 | HMGVTDSSYNVLRRQILEMLSVQQRTPADLARLIEADKEEIAAVIRFLLDKGEIQMEDGMLQTK | -0.151
24 | HMGVVEEVAADFEGRAVVGKVDVDEQTELARRFGIMSIPTLVVMKGGKVVEQAVGARGKADIAAMLERH | -0.673
25 | HMGYINLNVKVSPEWRDFWRSAYASVVAGYHQNKEHWNTIILDGSIPDKDIKRMIAESYDLVSD | -0.662
26 | HMGYLNDRQRLIKDFITENQPLKVSDLVKQFPNIGLSTLKKDLQYLRGEQVLTMIGKGKGSVYVLNKK | ≥ 0.43
27 | HMGYNDQEVKSNLITLLSTSKTGLSGVEISAQLGINRVTMTKFLNVFAAEGIIKQKNIGNLNLWLVEEGTE | -0.05
28 | HMGYTTSFVVQLKNAVSISFDEIDQNLRKLPGVEDVVIVEEAAMAYLKVDRQHFREEQLAHFEFVRQ | -1.6

Row | Sequence | soluble fraction (log2)
29 | HMGYVQLTAREKEVLQGLVDGASYKMIAAKLDIRFGTVHTHVKNIYEKLHVNSASEAVVKAIRQRL | -0.743
30 | HMHADIAATVVATMRQLGVLGLPRNYEIFYEALSGTNRELSLAVVSLSNRPTQDDLDRIGRRFFA | -0.426
31 | HMHAEEIAREAKEALERGEEFHFAGITVRSEEALEFLEEWLRKFF | -1.23
32 | HMHALSVKFSDEAAKTLPYDILSALRDVLALDPRPGYSRDENKIYRFEYADYNISFSVKDKTLTVLSAEK | -0.148
33 | HMHAPRIEVVQIDPEKIGALIGPGGKNIRRITEVTGANLDIDEDNSGKIRVYASDSEAMNRALQEIDLVT | -0.18
34 | HMHDHKTRLQELAAQRFGSAPSYLLTADGPAHDRRFHASVEVGGRSFGPGTGKSKKRAEQVAAHIAWDALS | 0.415
35 | HMHDIPDITDLRPLRHTLGLTLAHAAQQLNTTTATISRLERGQHRNDHLATTYRTWLHTHPT | 0.08
36 | HMHDLSQQIVRYLIQQGGSSSLTDKSDPQEIYRTFKVSKKKYKQALGNLYKSKTIVITSGKIELVD | 0.306
37 | HMHDYNTIVGVIEMRDKNIPLTSIRQRYGIGYSGIDLILTRYKDSGLTLKEFLALDPSQAEELIYPPK | -0.134
38 | HMHEHWDGSGFPKHLRGANIPLGARVIAVADTYDSITSSRAYRAGSTHEAAEREMRRVSGTQLDPE | 0.0226
39 | HMHEIVDTVLQVKQSVEADPLIAPALKNKEIVFQLNAKGVFQFKNAVIQVASALGISKNTVYMHLRNNK | -0.14
40 | HMHETMGQIIKRLRKERGLTQESLAERLGVTFQAVSKWETDAGMPDVSQIVPLANAFGVRTDVLFGLEGRD | 0.187
41 | HMHEYSRIYQQQWWDNATGADAYHVIHSARSRAAQDPEAARALEYLEEQFRIRYGVRTEDFLGYLHD | -1.31
42 | HMHFENEETFVLPLVREGFSEQQQLEMVDRLLFDANTDNPRWIIDWMASELPSTQRELLLDLEKRLAEVRS | -0.358
43 | HMHFEWNELRKAINDFLAEQNMNEDKQLGPYFIQRDIVVPETGTEIDSKKFSEVFKHKVIMYLFDDAAKQ | -0.441
44 | HMHGESISVPDLRGQKMERMPAFLADKHLQFKVIDSLFDLEKNPGTVLEQDPAPNSKVKEGRTIYLTVNAQ | -0.118
45 | HMHGQGTYTSPDGTKYVGDWQDEKMHGQGTYTYPDGMKFVGEFKDNKPWNGTGYDKYGNVKATFSNGVGKS | 0.22
46 | HMHGSSSTVPPVKGLSFEQARLTLAENDLTVEISDSIYDRNARPGTVVESWPRAGSVVKQGRQVYVTVTAF | -0.685
47 | HMHHDDHNQQEEIKEKLLAMVADGERHHVTEVRQLDEDWDMVTKVMKELMDEEQLLMDGSYLILSA | -0.551
48 | HMHHSGLRQSQFDEISRQIRSLLEMESLSLQELKTRMEDVPEEQLTKVVSYLLSEEIIRQENGRLQ | -1.35
49 | HMHKAVVGPPNARKLAVTYGFKRWPALVFFRDGKYLGAVDGLRLWADLVREADEIMHSEPHYP | 0.22
50 | HMHKFMEQNQDRRLSRMKELIGILSEAAKTYYQESREIMSNFQYDRMYDELLELEKETGVVMAGSPTQKV | -0.98
51 | HMHKKQEVQDSIDAAEEFMRASGVPAELITSKRAYAVKAIYADAVDKGTPDEIVKKDGMIVALISQMRS | -0.159
52 | HMHKLTIEEALNYKTPANAGGPYSGKPFRDIYDQRGKAAVISFAKYYLSKATPEDPMVEVYRTLLDGAMEL | 0.102
53 | HMHKREKSFFETIYDDIPGIGKKRRVQLLSAYPTLDSLKSVTLEELKQIVPEESAKLILEKRDSR | 0.407
54 | HMHPARITATVRVGEGDLVDIEREAELGGPIHSKGVMILSSFLGARYARTVPLSLSASLVFEQSY | 0.0113
55 | HMHPDALTEREREVLSLLADGLSNREIAARLVLALGTVKWYISVIYSKLGVTRRTQAIARARELHLV | -0.41
